Assay results taken from US20230265151A1, “GIP/GLP1 CO-AGONIST COMPOUNDS” (priority 2020, published 2023).
*1 amine or outer side, *2 acyl side, *3 side chain or, on linkers, in order; H or OH if unused. Where no end group is shown, it is not given here. Side-chain parts run from the residue outwards. [ ]: non-standard residue; d: D form. The star is where a group is joined. Decanoyl(10-(4-HOOC-PhO)) = O=C(O)c1ccc(OCCCCCCCCCC(=O)*)cc1; αMePhe(2-F) = C[C@](N)(Cc1ccccc1F)C(=O)O; γGlu = O=C(O)[C@H](CCC(=O)[*:2])N[*:1]; C14 diacid = O=C(O)CCCCCCCCCCCCC(=O)*; αMeY = C[C@](N)(Cc1ccc(O)cc1)C(=O)O; 4Pal = N[C@@H](Cc1ccncc1)C(=O)O; αMeL = CC(C)C[C@](C)(N)C(=O)O; Lauroyl = CCCCCCCCCCCC(=O)*; Orn = NCCC[C@H](N)C(=O)O; AEEA = NCCOCCOCC(=O)O; Aib = CC(C)(N)C(=O)O

T1: human GIP receptor (human, UniProt P48546 22-466)
T1 sequence (looked up): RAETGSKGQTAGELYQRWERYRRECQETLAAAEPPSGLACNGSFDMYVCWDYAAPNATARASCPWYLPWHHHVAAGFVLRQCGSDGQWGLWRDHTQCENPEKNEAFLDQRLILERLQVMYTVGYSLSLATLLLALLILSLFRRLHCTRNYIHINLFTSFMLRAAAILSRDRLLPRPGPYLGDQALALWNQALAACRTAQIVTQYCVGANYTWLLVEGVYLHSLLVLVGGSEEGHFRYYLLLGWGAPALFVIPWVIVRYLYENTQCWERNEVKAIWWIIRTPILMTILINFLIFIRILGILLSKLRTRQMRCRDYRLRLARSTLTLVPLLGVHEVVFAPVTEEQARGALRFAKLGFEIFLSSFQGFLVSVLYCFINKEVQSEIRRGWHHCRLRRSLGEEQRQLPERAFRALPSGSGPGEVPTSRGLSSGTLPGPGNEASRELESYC

T2: human GIP receptor (human) (UniProt P48546)
T2 sequence (looked up): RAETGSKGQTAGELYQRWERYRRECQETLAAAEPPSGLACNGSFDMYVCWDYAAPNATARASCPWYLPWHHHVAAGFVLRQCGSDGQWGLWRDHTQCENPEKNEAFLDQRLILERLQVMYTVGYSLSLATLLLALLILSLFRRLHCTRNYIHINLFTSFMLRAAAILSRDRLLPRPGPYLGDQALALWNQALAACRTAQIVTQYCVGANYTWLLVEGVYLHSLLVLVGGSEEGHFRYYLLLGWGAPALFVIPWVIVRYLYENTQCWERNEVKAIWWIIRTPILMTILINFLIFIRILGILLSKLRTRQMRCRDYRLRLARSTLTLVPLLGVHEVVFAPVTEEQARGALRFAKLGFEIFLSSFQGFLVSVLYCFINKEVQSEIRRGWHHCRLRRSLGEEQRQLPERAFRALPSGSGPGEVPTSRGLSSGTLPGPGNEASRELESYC


Tests used:
Assay in all cases: cell-based or functional assay
[1] = target: T1, human GIP receptor
[2] = target: human GLP-1 receptor (human, UniProt P43220 24-463)
[3] = target: human glucagon receptor (human, UniProt P47871 26-477)
[4] = target: T2, human GIP receptor (human)
[5] = target: hGLP-1R (Homo sapiens, UniProt P43220)
[6] = target: human glucagon receptor (human) (UniProt P47871)

human glucagon receptor, sequence (P47871 26-477): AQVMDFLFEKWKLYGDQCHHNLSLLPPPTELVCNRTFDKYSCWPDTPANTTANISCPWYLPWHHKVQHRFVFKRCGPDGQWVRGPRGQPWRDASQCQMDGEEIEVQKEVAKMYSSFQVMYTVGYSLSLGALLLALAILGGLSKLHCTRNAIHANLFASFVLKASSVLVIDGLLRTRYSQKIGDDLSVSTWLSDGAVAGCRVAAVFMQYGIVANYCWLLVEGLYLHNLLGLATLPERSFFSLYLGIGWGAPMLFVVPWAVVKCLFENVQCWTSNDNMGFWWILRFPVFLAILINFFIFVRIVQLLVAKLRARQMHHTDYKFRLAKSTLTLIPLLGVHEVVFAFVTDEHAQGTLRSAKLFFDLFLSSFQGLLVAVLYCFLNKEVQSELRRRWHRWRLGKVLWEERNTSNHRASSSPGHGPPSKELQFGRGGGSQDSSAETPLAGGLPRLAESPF

Row | Binder | cAMP EC50 (1.0% HSA) [1] [nM] | cAMP Emax (1.0% HSA) [1] [%] | cAMP EC50 (1.0% HSA) [2] [nM] | cAMP Emax (1.0% HSA) [2] [%] | cAMP EC50 (1.0% HSA) [3] [µM] | cAMP EC50 [4] [pM] | cAMP Emax [4] [%] | cAMP EC50 [5] [nM] | cAMP Emax [5] [%] | cAMP EC50 [6] [µM]
1 | Y[Aib]EGT[αMePhe(2-F)]TSDV[Aib]I[αMeL]LD[Orn]K([AEEA-AEEA-γGlu-Decanoyl(10-(4-HOOC-PhO))])AQ[Aib]K([AEEA-AEEA-γGlu-Decanoyl(10-(4-HOOC-PhO))])FI[dE][αMeY]LI[Orn]GGPSSGAPPPS-NH2 [Example 410] | 1.28 | 86.4 | 11 | 93.1 | > 9.95 | 11.8 | 99.1 | 0.251 | 94 | > 9.95
2 | Y[Aib]EGT[αMePhe(2-F)]TSDV[Aib]I[αMeL]LD[Orn]K([AEEA-AEEA-γGlu-C14 diacid])AQ[Aib]K([AEEA-AEEA-γGlu-C14 diacid])FI[dE][αMeY]LI[Orn]GGPSSGAPPPS-NH2 (N-terminus assumed; SMILES CC[C@H](C)[C@H](NC(=O)[C@H](CC(C)C)NC(=O)[C@](C)(Cc1ccc(O)cc1)NC(=O)[C@@H](CCC(=O)O)NC(=O)[C@@H](NC(=O)[C@H](Cc1ccccc1)NC(=O)[C@H](CCCCNC(=O)COCCOCCNC(=O)COCCOCCNC(=O)CC[C@H](NC(=O)CCCCCCCCCCCCC(=O)O)C(=O)O)NC(=O)C(C)(C)NC(=O)[C@H](CCC(N)=O)NC(=O)[C@H](C)NC(=O)[C@H](CCCCNC(=O)COCCOCCNC(=O)COCCOCCNC(=O)CC[C@H](NC(=O)CCCCCCCCCCCCC(=O)O)C(=O)O)NC(=O)[C@H](CCCN)NC(=O)[C@H](CC(=O)O)NC(=O)[C@H](CC(C)C)NC(=O)[C@](C)(CC(C)C)NC(=O)[C@@H](NC(=O)C(C)(C)NC(=O)[C@@H](NC(=O)[C@H](CC(=O)O)NC(=O)[C@H](CO)NC(=O)[C@@H](NC(=O)[C@](C)(Cc1ccccc1F)NC(=O)[C@@H](NC(=O)CNC(=O)[C@H](CCC(=O)O)NC(=O)C(C)(C)NC(=O)[C@@H](N)Cc1ccc(O)cc1)[C@@H](C)O)[C@@H](C)O)C(C)C)[C@@H](C)CC)[C@@H](C)CC)C(=O)N[C@@H](CCCN)C(=O)NCC(=O)NCC(=O)N1CCC[C@H]1C(=O)N[C@@H](CO)C(=O)N[C@@H](CO)C(=O)NCC(=O)N[C@@H](C)C(=O)N1CCC[C@H]1C(=O)N1CCC[C@H]1C(=O)N1CCC[C@H]1C(=O)N[C@@H](CO)C(N)=O) [Example 407] | 1.87 | 95.4 | 12.4 | 97.2 | > 9.95 | 11.4 | 99.2 | 0.156 | 100 | > 9.95
3 | YXEGTXTSDXXIXLDXKAQXKFIXXLIEGGPSSGAPPPS (Y-Aib-EGT-αMeF(2F)-TSD-4Pal-Aib-I-αMeL-LD-Orn-K(PEG3-(γ-Glu)-CO-(CH2)12-CO2H)AQ-Aib-K(PEG3-(γ-Glu)-CO-(CH2)12-CO2H)FI-(D-Glu)-αMeY-LIEGGPSSGAPPPS-NH2) [Example 404] | 1.74 | – | 49.1 | – | > 9.95 | 14 | 101 | 0.632 | 94.3 | > 9.95
4 | YXEGTXTSDXXIXLDXKAQXTFIXXLIKGGPSSGAPPPS (Y-Aib-EGT-αMeF(2F)-TSD-4Pal-Aib-I-αMeL-LD-Orn-K((2-[2-(2-Amino-ethoxy)-ethoxy]-acetyl)2-(γ-Glu)-CO-(CH2)10-CH3)AQ-Aib-TFI-(D-Glu)-αMeY-LIK((2-[2-(2-Amino-ethoxy)-ethoxy]-acetyl)2-(γ-Glu)-CO-(CH2)10-CH3)GGPSSGAPPPS-NH2) [Example 419] | 0.44 | – | 7.19 | 97.3 | > 9.95 | 9.58 | 101 | 0.132 | 113 | > 9.95
5 | YXEGTXTSDXXIXLDXKAQXXFIXXLIKGGPSSGAPPPS (Y-Aib-EGT-αMeF(2F)-TSD-4Pal-Aib-I-αMeL-LD-Orn-K((2-[2-(2-Amino-ethoxy)-ethoxy]-acetyl)2-(γ-Glu)-CO-(CH2)10-CH3)AQ-Aib-Orn-FI-(D-Glu)-αMeY-LIK((2-[2-(2-Amino-ethoxy)-ethoxy]-acetyl)2-(γ-Glu)-CO-(CH2)10-CH3)GGPSSGAPPPS-NH2) [Example 414] | 0.274 | 92.2 | 3.24 | – | > 9.95 | 9.61 | 98.4 | 0.119 | – | > 9.95
6 | YXEGTXTSDYXIXLDXKAQXKFIXXLIXGGPSSGAPPPS (Y-Aib-EGT-αMeF(2F)-TSDY-Aib-I-αMeL-LD-Orn-K((2-[2-(2-Amino-ethoxy)-ethoxy]-acetyl)2-(γ-Glu)-(10-(4-carboxyphenoxy)decanoyl))AQ-Aib-K((2-[2-(2-Amino-ethoxy)-ethoxy]-acetyl)2-(γ-Glu)-(10-(4-carboxyphenoxy)decanoyl))FI-(D-Glu)-αMeY-LI-Orn-GGPSSGAPPPS-NH2) [Example 409] | 0.537 | 84 | 8.05 | 97.7 | > 9.95 | 9.28 | 99.2 | 0.188 | 103 | > 9.95
7 | YXEGTXTSDXXIXLDXKAQXKFIXXLIEGGPSSGAPPPS (Y-Aib-EGT-αMeF(2F)-TSD-4Pal-Aib-I-αMeL-LD-Orn-K(PEG4-(γ-Glu)-CO-(CH2)12-CO2H)AQ-Aib-K(PEG4-(γ-Glu)-CO-(CH2)12-CO2H)FI-(D-Glu)-αMeY-LIEGGPSSGAPPPS-NH2) [Example 405] | 1.23 | – | 37.5 | 78.1 | > 9.95 | 20.9 | 100 | 1.26 | 93.3 | > 9.95
8 | YXEGTXTSDKXIXLDXKAQXXFIXXLIEGGPSSGAPPPS (Y-Aib-EGT-αMeF(2F)-TSDK((2-[2-(2-Amino-ethoxy)-ethoxy]-acetyl)2-(γ-Glu)-CO-(CH2)10-CH3)-Aib-I-αMeL-LD-Orn-K((2-[2-(2-Amino-ethoxy)-ethoxy]-acetyl)2-(γ-Glu)-CO-(CH2)10-CH3)AQ-Aib-Orn-FI-(D-Glu)-αMeY-LIEGGPSSGAPPPS-NH2) [Example 417] | 0.201 | – | 2.66 | – | > 9.95 | 6.51 | 101 | 0.0675 | 109 | > 9.95
9 | Y[Aib]EGT[αMePhe(2-F)]TSDK([AEEA-AEEA-γGlu-Lauroyl])[Aib]I[αMeL]LD[Orn]K([AEEA-AEEA-γGlu-Lauroyl])AQ[Aib][4Pal]FI[dE][αMeY]LIEGGPSSGAPPPS-NH2 [Example 415] | 0.492 | – | 5.72 | – | > 9.95 | 9.91 | 101 | 0.122 | 109 | > 9.95
10 | Y[Aib]EGT[αMePhe(2-F)]TSDV[Aib]I[αMeL]LD[Orn]K([AEEA-γGlu-C14 diacid])AQ[Aib]EFI[dE][αMeY]LIK([AEEA-γGlu-C14 diacid])GGPSSGAPPPS-NH2 (N-terminus assumed; SMILES CC[C@H](C)[C@H](NC(=O)[C@H](CC(C)C)NC(=O)[C@](C)(Cc1ccc(O)cc1)NC(=O)[C@@H](CCC(=O)O)NC(=O)[C@@H](NC(=O)[C@H](Cc1ccccc1)NC(=O)[C@H](CCC(=O)O)NC(=O)C(C)(C)NC(=O)[C@H](CCC(N)=O)NC(=O)[C@H](C)NC(=O)[C@H](CCCCNC(=O)COCCOCCNC(=O)CC[C@H](NC(=O)CCCCCCCCCCCCC(=O)O)C(=O)O)NC(=O)[C@H](CCCN)NC(=O)[C@H](CC(=O)O)NC(=O)[C@H](CC(C)C)NC(=O)[C@](C)(CC(C)C)NC(=O)[C@@H](NC(=O)C(C)(C)NC(=O)[C@@H](NC(=O)[C@H](CC(=O)O)NC(=O)[C@H](CO)NC(=O)[C@@H](NC(=O)[C@](C)(Cc1ccccc1F)NC(=O)[C@@H](NC(=O)CNC(=O)[C@H](CCC(=O)O)NC(=O)C(C)(C)NC(=O)[C@@H](N)Cc1ccc(O)cc1)[C@@H](C)O)[C@@H](C)O)C(C)C)[C@@H](C)CC)[C@@H](C)CC)C(=O)N[C@@H](CCCCNC(=O)COCCOCCNC(=O)CC[C@H](NC(=O)CCCCCCCCCCCCC(=O)O)C(=O)O)C(=O)NCC(=O)NCC(=O)N1CCC[C@H]1C(=O)N[C@@H](CO)C(=O)N[C@@H](CO)C(=O)NCC(=O)N[C@@H](C)C(=O)N1CCC[C@H]1C(=O)N1CCC[C@H]1C(=O)N1CCC[C@H]1C(=O)N[C@@H](CO)C(N)=O) [Example 399] | 16.2 | 86.8 | 43.6 | 89.7 | > 9.95 | 18.6 | 98.4 | 0.259 | 91.9 | > 9.95
11 | YXEGTXTSDXXIXLDXKAQXXFIXXLIEGGPSSGAPPPSK (Y-Aib-EGT-αMeF(2F)-TSD-4Pal-Aib-I-αMeL-LD-Orn-K((2-[2-(2-Amino-ethoxy)-ethoxy]-acetyl)2-(γ-Glu)-CO-(CH2)10-CH3)AQ-Aib-Orn-FI-(D-Glu)-αMeY-LIEGGPSSGAPPPSK((2-[2-(2-Amino-ethoxy)-ethoxy]-acetyl)2-(γ-Glu)-CO-(CH2)10-CH3)-NH2) [Example 418] | 0.126 | – | 1.72 | 98.8 | > 9.95 | 5.99 | 91 | 0.0603 | 93.7 | > 9.95
